Where “and” joins values, the source holds several entries; their conditions need not be identical. Identical values can stand only once. Like-named read-outs stand apart in the source and are kept apart here.
How the values were obtained:
[1] = system: sperm-zona pellucida binding; assay: Hemizona assay (HZA), competitive inhibition of sperm-zona binding, first series; type: cell-based, human
Description: An inverted, phase-contrast microscope equipped with a micromanipulation system was routinely employed to cut the oocyte into halves to obtain matching hemizonae. Oocytes used in the experiments were obtained from surgically-removed ovarian tissue or discarded from IVF therapy under approval of the Institutional Review Board at Eastern Virginia Medical School. The hemizonae were washed in PBS to completely deplete the cytoplasm. Sperm samples were from healthy fertile donors. A swim-up procedure was applied to obtain motile sperm, which were then adjusted to 0.5 million/ml in Human Tubal Fluid (HTF) supplemented with 0.3% Human Serum Albumin (HSA) for hemizona assay. In one Petri dish, one droplet of 100 ul of sperm suspension was placed as a control. Another droplet of sperm was pre-treated with rhZP3. One hemizona was placed into the control droplet and the matching hemizona was placed in the sperm droplet treated with rhZP3. Five pairs of hemizona were used for each experiment. All dishes were incubated at 37° C., 5% CO2 for 4 hours. Each hemizona was removed and rinsed 15 times in PBS, and transferred to the counting dish. The number of sperm bound to the surface of each hemizona was counted under phase microscopy. The HZI was calculated to evaluate rhZP3-binding activity (competitive inhibition) as follows: number of sperm bound for treatment/number of sperm bound for control×100.

[2] = Isoelectric focusing electrophoresis; type: physicochemical; conditions: ampholytes pH 3-10 and pH 4-8
Protocol: For further biochemical analysis, isoelectric focusing electrophoresis was performed. Approximately five microgram of recombinant ZP3 was loaded into an isoelectrophoresis tube with ampholytes (pH 3-10) in a wide range, and ampholytes (pH 4-8) in a narrow range. The same amount protein sample isolated from the PA-1 cells without transfected with hZP3 cDNA was used as a control.

human sperm = assay: Acrosome reaction of live sperm by FITC-PSA, second series; type: cell-based
Protocol: Determination of the acrosome reaction—The proportion of live acrosome-reacted spermatozoa incubated under capacitating conditions was determined with the fluorescent probe fluorescein isothiocyanate-labeled Pisum Sativum Agglutinin (FITC-PSA, Sigma) after staining with a supravital stain (Hoechst 33258, Sigma) following established techniques (12,13). At least 200 sperm per sample were evaluated in duplicate at 600× magnification using an epifluorescence microscope equipped with phase-contrast optics (Optiphot; Nikon, Melville, N.Y.). Slides were coded and read in a blind fashion.
A calcium ionophore agent (A23187, Sigma) tested at 5 μM and human acid solubilized zona pellucida tested at a final concentration of 4 zona/10 μl were used as positive controls (20). In further experiments, the acrosomal status was assessed by transmission electron microscopy. Spermatozoa were fixed by mixing sperm suspensions with equal volumes of 2% (v/v) glutaraldehyde (in 3 mM CaCl2 and 0.1 M sodium cacodylate); thereafter, samples were dehydrated twice and prepared for thin sectioning using previously published procedures. Ultrastructural examination was performed with a transmission electron microscope (Jeol JEM-1200 EX II, Peabody, Mass.).
Experiment 2: Characterization of the acrosome reaction inducing activity of the rhZP3 in dose- and sperm capacitation-dependency studies—Motile sperm fractions from 29 ejaculates of 11 different donors were incubated under capacitating conditions for 3 hours and assayed for acrosome reaction using FITC-PSA. Following swim-up, sperm aliquots were pre-incubated for 30 minutes with rhZP3 (30 ng/ml), A23187 (positive control), culture medium from non-transfected PA-cells (NT) or sperm culture medium (negative controls). This was the initially selected dose of rhZP3 to be tested as it had proven to effect significant inhibition of sperm-zona binding in the HZA.
The dose-dependent effect of rhZP3 on acrosome reaction was examined in the swim-up fractions obtained from four different donors. The fractions were capacitated for 3 hours and exposed for 30 min to rhZP3 at final concentrations of 0, 7.5, 15, 30, 60, 120, 240, 480, 960 and 1920 ng/ml. The capacitation-dependency of the acrosome reaction-inducing activity of rhZP3 was assessed in the swim-up fractions of four ejaculates from four different donors. Capacitation times included: 0 (immediately post-swim-up), 1, 4, 8, 12 and 24 hours. After the capacitation period, rhZP3 was added to the sperm suspension at a final concentration of 30 ng/ml.
In another set of experiments, three different ejaculates were used to compare the effects of the rhZP3 (tested at 500 ng/ml) with those of solubilized zonae pellucidae and the calcium ionophore. Further, the induction of the acrosome reaction was assessed in parallel with FITC-PSA and transmission electron microscopy. The goal of these studies was to compare the morphological features of the acrosome reaction between agonists and also between the agonist-induced and basal exocytosis rates.

[3] = system: sperm-zona pellucida binding; assay: Competitive hemizona assay (HZA), second series; type: cell-based, human
Protocol: Measurement of sperm-zona pellucida binding-Salt-stored, immature (prophase I) human oocytes were used in the experiments. Oocytes were desalted and microbisected into matching halves (hemizonae) using a micromanipulator (Narishige, Tokyo, Japan) following techniques published elsewhere (10, 11, 19). Control and test sperm droplets (100 μl each of a final dilution of 0.5×10^6 motile sperm/ml 1 hour post-swim-up) were incubated separately under heavy mineral oil (Sigma) with a hemizona from the same matching pair for 4 hours at 37° C. in 5% CO2 in humidified air. After the co-incubation period, the hemizonae were washed to remove loosely attached sperm using a finely drawn glass pipette, and the sperm tightly bound to the outer zona surface were counted under phase microscopy (×200). The hemizona assay index (HZI) was calculated as follows: # of sperm bound for test sample/# of sperm bound for control sample×100. An HZI of 100 indicates no inhibition whereas an HZI of 0 reflects complete inhibition of binding.
Swim up sperm were incubated with rhZP3 (test, at a final concentration of 0, 10, 30, 100, 250, 500 or 2,000 ng/ml of protein) or in culture medium (control) for 30 min under identical conditions. After 30 min, a hemizona was added to the test sperm droplet whereas the matching hemizona from the same pair was added to the control sperm droplet. Three pairs of matching hemizonae were tested per rhZP3 concentration per semen sample in a total of three ejaculates from different donors.
Additional competitive HZAs were performed where the test sperm droplet (rhZP3) was assessed against control sperm droplets of culture medium from non-transfected PA-1 cells (NT). Also, competitive HZAs were carried out where the test sperm droplet (culture medium from non-transfected PA-1 cells, NT) was assayed against sperm culture medium. Three pairs of matching hemizonae were tested per dose per experiment in a total of three different ejaculates. These studies were carried out in order to examine the specificity of the effect of the rhZP3.

[4] = system: sperm-zona pellucida binding; conditions: Dong et al 2000; cited from earlier work
[5] = in the range of 500-2,000 ng/ml

B1: rhZP3: recombinant human zona pellucida protein 3 with six-histidine tail, expressed in human ovarian PA-1 cells; secreted glycoprotein of approximately 65 Kd (protein)
chain: QPLWLLQGGASHPETSVQPVLVECQEATLMVMVSKDLFGTGKLIRAADLTLGPEACEPLVSMDTEDVVRFEVGLHECGNSMQVTDDALVYSTFLLHDPRPVGNLSIVRTNRAEIPIECRYPRQGNVSSQAILPTWLPFRTTVFSEEKLTFSLRLMEENWNAEKRSPTFHLGDAAHLQAEIHTGSHVPLRLFVDHCVATPTPDQNASPYHTIVDFHGCLVDGLTDASSAFKVPRPGPDTLQFTVDVFHFANDSRNMIYITCHLKVTLAEQDPDELNKACSFSKPSNSWFPVEGSADICQCCNKGDCGTPSHSRRQPHVMSQWSRSASRNHHHHHH
inhibition of sperm-ZP binding ([1]; 30 ng/ml, sperm pre-incubated 30 min): approximately 60% | HZI (Mean ± SEM) ([1]; test reagent 30 ng/ml versus control 30 ng/ml NT): 44.5 (3.6) | HZI (Mean ± SEM) ([1]; test reagent 30 ng/ml versus control HTF/0.5% HSA, 30 min pre-incubation, 4 h with hemizona): 43.6 (3.3) | isoelectric point (PI) [2]: 4.60±0.05 and ~5.60 | isoelectric point (PI) ([2]; listed as recombinant human ZP3): 4.6±0.05 | concentration of highest acrosome reaction-inducing activity (human sperm): 0.5 to 2 µg/mL | concentration range of highest stimulation (maximal effects) of acrosome reaction (human sperm): 500-2,000 ng/ml | potency relative to CHO cell product (human sperm; 0.5-2 μg/ml versus 15-20 μg/ml): at least 10 times | minimally effective dose, induction of the acrosome reaction (human sperm; 3 h capacitation, 30 min exposure): 30 ng/mL | highest stimulation of acrosome reaction, increase from baseline conditions (human sperm; [5]): approximately 210% | capacitation time of maximal stimulation of acrosome reaction (human sperm; rhZP3 30 ng/ml): 8 to 10 h | live, acrosome reacted sperm (human sperm; rhZP3 30 ng/ml, A23187 5 μM, 3 h capacitation, 30 min exposure): 19±4.1% | induction of the acrosome reaction (human sperm; rhZP3 500 ng/ml, solubilized zona 4 zona/10 μl, A23187 5 μM): 28.2±5.6% | concentration range of highest (maximal) inhibition of binding [3]: 500 to 2000 ng/mL | minimally effective dose, inhibition of binding under HZA conditions ([3]; 30 min pre-incubation): 30 ng/mL | highest inhibition of binding [3, 5]: approximately 70% | concentration range of highest (maximal) inhibition of binding ([3]; listed as Recombinant hZP3): 500-2,000 ng/ml | HZI (Hemizona index) ([3]; test reagent 30 ng/mL versus 30 ng/mL NT): 44.5 ± 3.6 | HZI (Hemizona index) ([3]; test reagent 30 ng/mL versus Ham's F-10/0.5% HSA): 43.6 ± 3.3 | HZI (Hemizona index) ([3]; test reagent 500 ng/mL versus 500 ng/mL NT): 41.8 ± 1.9 | HZI (Hemizona index) ([3]; test reagent 500 ng/mL versus Ham's F-10-0.5% HSA): 38.0 ± 2.7 | range of maximal effect, ligand activity [4]: 30-1,000 ng/ml
